Assay results taken from patent publication US10654893B2, “Self-assembling peptide compositions” (3-D MATRIX, LTD., priority 2014, dated 2020).

Columns and labels:
Format in all cases: physicochemical
[1] = Formulation chart: concentration for desired storage modulus from linear trendline equations; conditions: linear trendline equation
From the text: In some embodiments, peptide compositions with a specific desired stiffness may be formulated to have a particular peptide concentration determined using a mathematical model (i.e., the modulus trend-line equation). A formulation chart of peptide compositions may relate their concentrations in deionized water to their specific storage moduli, for example as is presented below in Table 3A. From such a chart, one skilled in the art may formulate a peptide composition with desired rheological properties by selecting a particular peptide and an appropriate peptide concentration so that the formulated composition has a desired stiffness.

[2] = Rheological properties at selected ionic strengths (DHR-1, 20 mm plates)
From the text: FIGS. 27-29 show rheological properties measured with a rheometer (DHR-1, TA Instruments) with 20 mm plates when ion strengths are slightly lower than the critical ion strengths. Ion strengths of RADA16 (SEQ ID NO:1), KLD12 (SEQ ID NO:2) and IEIK13 (SEQ ID NO:3) were 0.7 M, 0.2 M and 0.02M, respectively for the measurements. Rheological properties of RADA16 (SEQ ID NO:1), KLD12 (SEQ ID NO:2) and IEIK13 (SEQ ID NO:3) compositions were higher after adjusting their ionic strength levels with NaCl to 0.7 M (RADA16 (SEQ ID NO:1)), 0.2 M (KLD12 (SEQ ID NO:2)) or 0.02 M (IEIK13 (SEQ ID NO:3)).
Rheological properties of peptide compositions at selected ionic strengths were measured using a rheometer (DHR-1, TA Instruments) with 20 mm plates. […] Results are shown in FIG. 30 for RADA16 (SEQ ID NO:1) and in FIG. 31 for IEIK13 (SEQ ID NO:3).
Viscosities of peptide compositions at selected ionic strength levels were evaluated. […] Viscosities of 1% IEIK13 (SEQ ID NO:3) compositions were evaluated using a rheometer (DHR-1, TA Instruments) with 20 mm plates. The results are shown in FIGS. 32A and 32B for IEIK13 (SEQ ID NO:3).

[3] = Rheological properties before and after DMEM treatment
Method: Effects of Dulbecco's modified Eagle's medium (DMEM) (pH 7.4) on rheological properties of IEIK13 (SEQ ID NO:3), KLD12 (SEQ ID NO:2), and RADA16 (SEQ ID NO:1) compositions were evaluated using a rheometer (AR500, TA Instruments) with 40 mm plates. DMEM is a cell culture medium that contains 6.4 g/L of NaCl, 3.4 g/L NaHCO3 (sodium bicarbonate), minor amounts of other salts, various amino acids, and 4.5 g/L of glucose. The pH of DMEM is 7.2±0.2 and the osmolality is 335±30 mOsm/Kg H2O. DMEM is close to human physiological fluids, for example, blood.
Before being mixed with the DMEM solution, 1% peptide compositions were kept in 4° C. for at least 48 hours. To perform experiments, 1 mL of peptide composition was gently pipetted and placed on the plate of the rheometer. 2 mL of the DMEM solution was gently added around the peptide composition. The peptide composition was treated with the DMEM for two minutes, then medium was removed, and the plates were placed at a measuring geometry gap at around 450 μm. Measurements were performed at 37° C. after 2 min of relaxation. Frequency tests were performed from 1 rad/s to 100 rad/s at 1 Pa of oscillation stress.
Using a DHR-1 rheometer (TA Instruments), rheological properties of peptide compositions at selected concentrations were measured before and after the DMEM treatment. Frequency sweep tests were performed from 1 rad/sec to 10 rad/sec at 1 Pa and the storage moduli in the graphs were at 1 rad/sec. […] Results are shown in FIGS. 22A and 22B for RADA16 (SEQ ID NO:1) and FIGS. 23A and 23B for IEIK13 (SEQ ID NO:3), respectively.
Using a DHR-1 rheometer (TA Instruments), rheological properties of peptide compositions at selected ion strengths were evaluated 10 mins after the DMEM treatment. Frequency sweep tests were performed from 1 rad/sec to 10 rad/sec at 1 Pa and the storage modulus at 1 rad/sec was selected for data. […] At 0.9 M or higher ionic strengths of NaCl, RADA16 (SEQ ID NO:1) compositions became cloudy.

[4] = Time sweep test of gelation after adding DMEM or saline buffer
Method: FIG. 25 includes 1.5% IEIK13 (SEQ ID NO:3) data at pH 2.3, 2.6, 2.9 and 3.2. Time sweep tests were performed at 1 rad/sec and at 1 Pa with 20 mm plates and 500 μm gap distance. During time sweep tests, DMEM was added into the chamber surrounding the measuring plates to soak the peptides at time=0.
Time sweep tests were performed at 1 rad/sec and at 1 Pa with 20 mm plates and 500 μm gap distance. During time sweep tests, the saline buffer was added into the chamber surrounding the measuring plates to soak the peptides at time=0.

[5] = Compositions with 0.9% NaCl at pH 3.4 (combined salt and pH)
Method: IEIK13 (SEQ ID NO:3), KLD12 (SEQ ID NO:2), and RADA16 (SEQ ID NO:1) were dissolved in salt buffer (e.g. NaCl) and kept at elevated pH level adjusted with alkali salt buffer (e.g. NaOH). The compositions had their pH levels about 2.5-4.0 and lower ionic strength than their critical points. With respect to RADA16 (SEQ ID NO:1), KLD12 (SEQ ID NO:2) and IEIK13 (SEQ ID NO:3), peptide compositions were still clear with 0.9% NaCl (i.e. ionic strength of 0.15 M) at pH 3.4 (adjusted with NaOH). Rheological properties of RADA16 (SEQ ID NO:1) with 0.9% NaCl at pH 3.4 were stiffer than those of RADA16 control (i.e. no ionic strength and pH elevation) and RADA16 (SEQ ID NO:1) with 0.9% NaCl (no pH elevation).

Arg-Ala-Asp-Ala-Arg-Ala-Asp-Ala-Arg-Ala-Asp-Ala-Arg-Ala-Asp-Ala [RADA16]
Peptide concentration with deionized water to obtain desired storage modulus ([1]; storage modulus 25 Pa): 0.8 | Peptide concentration with deionized water to obtain desired storage modulus ([1]; storage modulus 50 Pa): 0.9 | Peptide concentration with deionized water to obtain desired storage modulus ([1]; storage modulus 75 Pa): 1.0 | Peptide concentration with deionized water to obtain desired storage modulus ([1]; storage modulus 100 Pa): 1.2 | Peptide concentration with deionized water to obtain desired storage modulus ([1]; storage modulus 125 Pa): 1.3 | Peptide concentration with deionized water to obtain desired storage modulus ([1]; storage modulus 150 Pa): 1.5 | Peptide concentration with deionized water to obtain desired storage modulus ([1]; storage modulus 175 Pa): 1.6 | Peptide concentration with deionized water to obtain desired storage modulus ([1]; storage modulus 200 Pa): 1.7 | Peptide concentration with deionized water to obtain desired storage modulus ([1]; storage modulus 225 Pa): 1.9 | Peptide concentration with deionized water to obtain desired storage modulus ([1]; storage modulus 250 Pa): 2.0 | Peptide concentration with deionized water to obtain desired storage modulus ([1]; storage modulus 275 Pa): 2.2 | Peptide concentration with deionized water to obtain desired storage modulus ([1]; storage modulus 300 Pa): 2.3 | Peptide concentration with deionized water to obtain desired storage modulus ([1]; storage modulus 325 Pa): 2.4 | Peptide concentration with deionized water to obtain desired storage modulus ([1]; storage modulus 350 Pa): 2.6 | Peptide concentration with deionized water to obtain desired storage modulus ([1]; storage modulus 375 Pa): 2.7 | Peptide concentration with deionized water to obtain desired storage modulus ([1]; storage modulus 400 Pa): 2.9 | Peptide concentration with deionized water to obtain desired storage modulus ([1]; storage modulus 425 Pa): 3.0 | Peptide concentration with deionized water to obtain desired storage modulus ([1]; storage modulus 500 Pa): 3.4 | Peptide concentration with deionized water to obtain desired storage modulus ([1]; storage modulus 600 Pa): 4.0 | Peptide concentration with deionized water to obtain desired storage modulus ([1]; storage modulus 700 Pa): 4.5 | Peptide concentration with deionized water to obtain desired storage modulus ([1]; storage modulus 800 Pa): 5.1 | Rheological properties as a function of ionic strength ([2]; 1% compositions, NaCl, decreased at higher ionic strength): increased with ionic strength adjustment up to 0.7 M | Rheological properties after adjusting ionic strength with NaCl ([2]; NaCl 0.7 M (RADA16), 0.2 M (KLD12), 0.02 M (IEIK13), 1%): higher | Rheological properties with NaCl versus KCl and CaCl2 ([2]; RADA16 compositions with salts): slightly higher | Appearance of composition ([3]; 0.9 M or higher ionic strengths of NaCl): became cloudy | Rheological properties as a function of ionic strength after DMEM treatment ([3]; 10 mins after DMEM treatment, NaCl, decreased with 0.7 M or higher): increased with ionic strength adjustment up to 0.7 M | Change of rheological properties with DMEM treatment ([3]; selected NaCl ionic strengths, RADA16 statement follows 0.9 M or higher NaCl (no gelation)): did not change with the DMEM treatment | Rheological properties with DMEM treatment and/or pH elevation ([3]; selected concentrations, storage moduli at 1 rad/sec, 1 Pa): increased with the DMEM treatment and/or pH elevation | Gelation on exposure to saline buffer ([4]; saline buffer, 0.15 M NaCl): no or negligible gelation | Storage modulus response (gelation kinetics) ([4]; with pH adjustment, time sweep with DMEM (FIGS. 24 and 25)): immediate storage modulus increase | Time without storage modulus increase ([4]; without pH adjustment (pH 2.2), time sweep with DMEM (FIG. 24)): 13 s | Appearance of composition ([5]; 0.9% NaCl (ionic strength of 0.15 M) at pH 3.4 (adjusted with NaOH)): still clear | Stiffness versus control and versus 0.9% NaCl without pH elevation ([5]; 0.9% NaCl at pH 3.4, 2.5% (FIG. 40)): stiffer
